Reference: US20110091480A1 (published 2011)

How the values were obtained:
[1] = biological target: T1, ORF0657t (ORF0657n fragment from amino acid 42 to amino acid 486 of SEQ ID NO: 1) (S. aureus, UniProt A5IS15 42-486); test: SPR Biacore 3000, ORF0657t bound to the surface, antibody fragment as analyte
T1 construct: also called ORFO657t

[2] = biological target: T2, ORF0657n-H/y (SEQ ID NO: 3) (S. aureus, UniProt A6QG30 42-609); test: Western blot (dot blot confirmed by Western)
T2 construct: also called Yeast expressed ORF0657n-H/y antigen

[3] = biological target: T3, ORF0657t CNBr fragment [303-446] (Band 15 kDa) (S. aureus, UniProt A5IS15 343-486); test: Western blot of CNBr cleavage products of ORF0657t with 2H2 mAb (Band 15 kDa)
T3 construct: also called 15 kDa band

[4] = biological target: T4, ORF0657t CNBr fragment [215-356] (Band 15 kDa) (S. aureus, UniProt A5IS15 255-396); test: as above
T4 construct: also called 15 kDa band

[5] = biological target: T5, ORF0657t CNBr fragment [357-446] (Band 10 kDa) (S. aureus, UniProt A5IS15 397-486); test: Western blot of CNBr cleavage products of ORF0657t with 2H2 mAb (Band 10 kDa)
T5 construct: also called 10 kDa band

[6] = biological target: T6, ORF0657t CNBr fragment [114-214] (Band 10 kDa) (S. aureus, UniProt A5IS15 154-254); test: as above
T6 construct: also called 10 kDa band
T6 sequence: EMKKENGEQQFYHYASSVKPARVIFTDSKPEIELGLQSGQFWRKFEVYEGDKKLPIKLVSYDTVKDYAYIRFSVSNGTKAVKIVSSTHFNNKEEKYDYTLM

[7] = biological target: T7, ORF0657t CNBr fragment [215-302] (Band 10 kDa) (S. aureus, UniProt A5IS15 255-342); test: as above
T7 construct: also called 10 kDa band
T7 sequence: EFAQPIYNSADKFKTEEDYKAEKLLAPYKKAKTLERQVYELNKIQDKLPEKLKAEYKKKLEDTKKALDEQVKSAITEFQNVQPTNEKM

[8] = biological target: T8, ORF0657t CNBr fragment [116-302] (Band 25 kDa) (S. aureus, UniProt A5IS15 156-342); test: Western blot of CNBr cleavage products of ORF0657t with 2H2 mAb (Band 25 kDa)
T8 construct: also called 25 kDa band
T8 sequence: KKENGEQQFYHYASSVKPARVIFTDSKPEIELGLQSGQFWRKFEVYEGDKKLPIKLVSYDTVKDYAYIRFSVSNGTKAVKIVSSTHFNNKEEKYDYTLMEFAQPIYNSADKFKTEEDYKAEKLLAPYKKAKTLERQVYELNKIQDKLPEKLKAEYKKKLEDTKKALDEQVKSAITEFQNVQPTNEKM

[9] = biological target: T9, ORF0657t CNBr fragment [001-214] (Band 25 kDa) (S. aureus, UniProt A5IS15 42-254); test: as above
T9 construct: also called 25 kDa band
T9 sequence: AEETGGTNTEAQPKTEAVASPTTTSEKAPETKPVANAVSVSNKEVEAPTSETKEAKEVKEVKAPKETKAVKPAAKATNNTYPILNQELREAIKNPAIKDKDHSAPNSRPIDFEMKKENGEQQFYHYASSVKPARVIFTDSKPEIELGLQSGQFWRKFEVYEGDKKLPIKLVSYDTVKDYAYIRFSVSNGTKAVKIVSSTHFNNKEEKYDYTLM

[10] = biological target: T1, ORF0657t (ORF0657n fragment from amino …); test: SPR Biacore 3000, IgG captured as ligand, ORF0657t as analyte
[11] = biological target: T10, ORF0657t CNBr fragment [001-323] (Band 35 kDa) (S. aureus, UniProt A5IS15 42-363); test: Western blot of CNBr cleavage products of ORF0657t with 2H2 mAb
T10 construct: also called 35 kDa band
T10 sequence: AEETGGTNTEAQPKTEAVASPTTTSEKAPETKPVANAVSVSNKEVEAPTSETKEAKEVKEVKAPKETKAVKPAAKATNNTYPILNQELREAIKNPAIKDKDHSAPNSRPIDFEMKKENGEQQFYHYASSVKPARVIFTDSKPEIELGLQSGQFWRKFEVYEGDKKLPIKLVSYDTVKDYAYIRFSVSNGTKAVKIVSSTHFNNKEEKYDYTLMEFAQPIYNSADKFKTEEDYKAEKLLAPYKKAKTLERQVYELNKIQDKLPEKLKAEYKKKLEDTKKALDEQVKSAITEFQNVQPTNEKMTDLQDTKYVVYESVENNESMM

T5 sequence (A5IS15 397-486): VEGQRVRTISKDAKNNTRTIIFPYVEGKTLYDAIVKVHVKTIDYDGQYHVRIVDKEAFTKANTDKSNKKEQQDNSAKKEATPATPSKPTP
T3 sequence (A5IS15 343-486): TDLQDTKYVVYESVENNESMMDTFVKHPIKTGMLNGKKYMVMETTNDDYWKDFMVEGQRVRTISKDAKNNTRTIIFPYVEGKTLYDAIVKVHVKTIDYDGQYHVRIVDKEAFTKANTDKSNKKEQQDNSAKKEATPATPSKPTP
T2 sequence (A6QG30 42-609, tags left off): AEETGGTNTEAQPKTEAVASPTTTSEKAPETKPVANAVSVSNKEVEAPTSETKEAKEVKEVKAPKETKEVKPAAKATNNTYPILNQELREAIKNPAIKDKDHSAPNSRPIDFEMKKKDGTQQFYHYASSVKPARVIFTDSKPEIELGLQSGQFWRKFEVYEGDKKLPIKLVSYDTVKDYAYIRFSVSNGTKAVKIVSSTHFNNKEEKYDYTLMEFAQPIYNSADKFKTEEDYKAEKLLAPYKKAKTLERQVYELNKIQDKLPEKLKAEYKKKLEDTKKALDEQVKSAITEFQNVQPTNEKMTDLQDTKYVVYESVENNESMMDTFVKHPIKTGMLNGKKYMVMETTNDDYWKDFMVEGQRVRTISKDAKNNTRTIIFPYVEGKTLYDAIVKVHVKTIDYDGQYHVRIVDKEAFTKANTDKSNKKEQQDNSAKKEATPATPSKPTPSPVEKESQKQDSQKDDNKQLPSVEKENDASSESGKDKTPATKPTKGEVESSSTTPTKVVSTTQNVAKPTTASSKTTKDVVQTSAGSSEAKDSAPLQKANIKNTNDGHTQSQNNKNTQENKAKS

B1: 2H2 scAb (scFv)
scFv: DIVMTQSPAIMSASPGEKITMTCSASSSVSYIYWYQQKSGTSPKRWIYDTSKLASGVPFRFSGGGSGTSFSLTISSMEAEDAATYYCQQWSSNPLTFGAGTKLEIKRGGGGSGGGGSGGGGSGGGGSDVHLVESGPGLVAPSQNLSITCTVSGFSLSRYGVHWVRQPPGKGLEWLGLIWAGGVTIYNSTLMSRLSISKDSSKSQVFLKMNSLQIDDTAIYYCAREASRDHYFDYWGQGTTLTVSSRTVAAPSVFIFPPSDEQLKSGTASVVCLLNNFYPREAKVQWKVDNALQSGNSQESVTEQDSKDSTYSLSSTLTLSKADYEKHKVYACEVTHQGLSSPVTKSFNRGEC
notes: domain: human kappa light chain constant domain; also called 2H2 clone; scFv with a Human Kappa chain tag
Kd [1]: 39 nM | koff [1]: 0.00191 s⁻¹ | kon [1]: 49100 M⁻¹ s⁻¹

B2: mAb 2H2.B8 (antibody, V domains shown)
VH: DVHLVESGPGLVAPSQNLSITCTVSGFSLSRYGVHWVRQPPGKGLEWLGLIWAGGVTIYNSTLMSRLSISKDSSKSQVFLKMNSLQIDDTAIYYCAREASRDHYFDYWGQGTTLTVSS
VL: DIVMTQSPAIMSASPGEKITMTCSASSSVSYIYWYQQKSGTSPKRWIYDTSKLASGVPFRFSGGGSGTSFSLTISSMEAEDAATYYCQQWSSNPLTFGAGTKLEIKR
notes: also called 2H2.B8 (IgG1)
binding result [2]: binds

B3: mAb 2H2.BE11 (antibody, V domains shown)
VH: B2 VH
VL: B2 VL
notes: also called 2H2.BE11 (IgG2b); 2H2 mAb
binding result [3]: no binding | binding result [4]: no binding | binding result [5]: no binding | binding result [6]: no binding | binding result [7]: no binding | binding result [8]: no binding | binding result [9]: no binding | Kd [10]: 33 nM | koff [10]: 0.00201 s⁻¹ | kon [10]: 61000 M⁻¹ s⁻¹ | binding result [11]: no binding

B4: 2H2 IgG chimera (antibody, V domains shown)
VH: B2 VH
VL: B2 VL
notes: also called chimeric antibody; Mouse 2H2 Variable and Human IgG1 / Human Kappa Constant Region
Kd [10]: 25 nM | koff [10]: 0.00273 s⁻¹ | kon [10]: 110000 M⁻¹ s⁻¹
